From patent publication US20160032292, “Aptamer-Guided Gene Targeting” (Georgia Tech Research Corporation, published 2016)

How the values were obtained:
[1] = target: T1, I-SceI homing endonuclease (expressed in yeast from GAL1-10 promoter) (UniProt P03882 P03882:1-235); assay: cell_activity; gene correction over P1-r-P2.TRP5.40; I-SceI induced before transformation
T1 sequence: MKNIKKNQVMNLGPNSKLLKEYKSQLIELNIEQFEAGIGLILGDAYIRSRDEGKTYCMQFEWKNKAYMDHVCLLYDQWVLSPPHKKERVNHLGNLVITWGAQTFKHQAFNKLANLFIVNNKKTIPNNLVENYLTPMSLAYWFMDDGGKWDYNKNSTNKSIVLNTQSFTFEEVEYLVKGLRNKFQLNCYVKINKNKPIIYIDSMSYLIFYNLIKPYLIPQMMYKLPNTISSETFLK
Method: Briefly, 50 ml of yeast extract-peptone-lactic acid (YPLac) (lactic acid 2%), pH 5.8, or yeast extract-peptone-dextrose (YPD) liquid culture was inoculated about 24 h before transformation and incubated with vigorous shaking at 30° C. YPLac was used as a neutral carbon source so as not to induce I-SceI expression until plating the transformations to selective galactose-containing media. YPD was used to repress I-SceI expression until plating the transformations to selective glucose-containing media. Transformations were done with 1 nmol of total oligonucleotide DNA, with the exception of the PAGE-purified oligonucleotides in which transformations were done with 500 pmol of total oligonucleotide DNA. For the transformations testing to determine whether the aptamer was working in trans, two oligonucleotides were used, 500 pmol of each oligonucleotide, such that the combined total oligonucleotide DNA used was 1 nmol. Sequences of oligonucleotides used for repair can be found in Table 1. Cells from each transformation were diluted appropriately and plated to synthetic complete medium lacking the respective amino acid and containing 2% galactose for I-SceI induction, 2 or 0.2% galactose for HO induction or 2% glucose for I-SceI or HO repression. […] Viability after transformation was calculated by plating to glucose-containing synthetic complete medium. […]

[2] = target: T2, I-SceI homing endonuclease (expressed in HEK-293 from pSce) (UniProt P03882 P03882:1-235); assay: cell_activity; RFP+ over C.Red.40, flow cytometry
T2 sequence: T1 sequence
Method: (§1) Protocols, 1:1412-1428 (2006)) 24 h before transfection. For transfections in HEK-293 cells, the plasmid DNA was used in the amount of 0.5 μg for the expression vector, as well as 0.5 μg for the targeted vector, and the repairing DNA oligonucleotide used was 1 μg, unless otherwise indicated. For the transfections with I-SceI digested pLDSLm, 0.5 m g of the linearized pLDSLm vector was used with 1 m g of repairing DNA oligonucleotide. Digestion of the pLDSLm vector was done using I-SceI (New England Biolabs, Ipswich, Mass., USA). Ten micrograms of plasmid pLDSLm was digested using 15 U I-SceI, 250 ng bovine serum albumin (BSA), 10×I-SceI buffer (New England Biolabs, Ipswich, Mass., USA) and water to a final volume of 50 μl. Digestions were done overnight at 37° C. In all transfection experiments, the oligonucleotides and the plasmid were diluted in DMEM without supplements, and then PEI was added, the solution was vortexed and added to the wells 10-15 min later. Red fluorescent cells were visualized by fluorescent microscopy using a Zeiss Observer A1 microscope and an AxioCam MRm camera (Zeiss, Thornwood, N.Y., USA). […] For certain transfections, wells of 24-well plates were seeded with 150,000 cells (on the day before transfection) and 5-8 days after transfection individual fluorescent cells per well were counted using a fluorescence microscope just before flow cytometry analysis. […]

[3] = target: T2, I-SceI homing endonuclease (expressed …); assay: cell_activity; RFP+ over C.Red.30, hand counts (4-fold by flow cytometry)
Method: as §1

B1: P1-A7-P2.TRP5.40 (ssDNA)
DNA: CTTCTGCCCGCCTCCTTCCGCGGGCGCTGTTGACAGCGGTCAGGTGGATGGGATGGACGAGATAGGCGGACACTGGTTTTGATGAAGCTGTCGCGGATCCCACATTCTGGGAAG
activity [1]: 1.25 fold

B2: A7.Red.40 (ssDNA)
DNA: GCGGGCGCTGTTGACAGCGGTCAGGTGGATGGGATGTGACCCAGGACTCCTCCCTGCAGGACGGCTGCTTCATCTA
activity [2]: 6 fold

B3: A7.Red.30 (ssDNA)
DNA: GCGGGCGCTGTTGACAGCGGTCAGGTGGATGGGATGCAGGACTCCTCCCTGCAGGACGGCTGCTTC
activity [3]: 16 fold
